The values below come from publication PMC6050298, “Highly active enzymes by automated combinatorial backbone assembly and sequence design” (Nature Communications, 2018).

Substrate in data set [1]: O=[N+]([O-])c1ccc(O[C@@H]2OC[C@@H](O[C@@H]3OC[C@@H](O)[C@H](O)[C@H]3O)[C@H](O)[C@H]2O)cc1
Kind of data set: purified protein. In kind it is biochemical, synthetic construct. The settings on record: 37 °C, 50 mM Tris pH 6.5, 150 mM NaCl, MBP fusion.

Substrate in data set [2]: O=[N+]([O-])c1ccc(O[C@@H]2OC[C@@H](O[C@@H]3OC[C@@H](O)[C@H](O)[C@H]3O)[C@H](O)[C@H]2O)cc1
Kind of data set: purified protein. It is filed as biochemical, Geobacillus stearothermophilus. The following applies: 37 °C, 50 mM Tris pH 6.5, 150 mM NaCl, MBP fusion.

B1: xyl3.1 (synthetic construct) (protein)
chain: TIGSEFKPHISALNAPSLAQRYKDYFYIGAAVEPYQTTKEKDAKMLQRHFNMIVAENAMKPAALEPTEGNFQWADADRIVQFAKENGMELRFHTLVWHNQTPDWFFLDREGKPMVEETDPQKREENRELLLQRLENHIRAVVLRYKDDIKNWDVVNEVVEPNDPGGMRNSPWYQITGTEYIEVAFRAAREAGGEDIKLYMNDYNTEQEPKREYIYRLIKKLLEKGVPIDGVGHQAHVTIDRPPVDEIKKTIQRFADLGLDNQITELDVSLYGWPPRPAYPTYDAIPEERFQAQADRYRQLFELFEELKDHISAVTFWGIADNHTWLDDRAREYNDGVGKDAPFVFDPNYRVKPAYWAIINHK
notes: computational design (105 mutations to nearest natural protein), N-terminal His6-MBP fusion kept in assay
On to B1, for which, in the data set “purified protein [1]”, the Km was 1820 ± 600 µM and the kcat was determined as 17 ± 5 s⁻¹.

B2: Xylanase from Geobacillus stearothermophilus (PDB ID: 4PUD) (Geobacillus stearothermophilus) (protein)
chain: KPHISALNAPQLDQRYKNEFTIGAAVEPYQLQNEKDVQMLKRHFNSIVAENVMKPISIQPEEGKFNFEQADRIVKFAKANGMDIRFHTLVWHSQVPQWFFLDKEGKPMVNETDPVKREQNKQLLLKRLETHIKTIVERYKDDIKYWDVVNEVVGDDGKLRNSPWYQIAGIDYIKVAFQAARKYGGDNIKLYMNDYNTEVEPKRTALYNLVKQLKEEGVPIDGIGHQSHIQIGWPSEAEIEKTINMFAALGLDNQITELDVSMYGWPPRAYPTYDAIPKQKFLDQAARYDRLFKLYEKLSDKISNVTFWGIADNHTWLDSRADVYYDANGNVVVDPNAPYAKVEKGKGKDAPFVFGPDYKVKPAYWAIIDHK
notes: synthetic codon-optimised gene, N-terminal His6-MBP fusion kept in assay, E. coli BL21 DE3; monomer; 4PUD names the template structure
Take B2: in “purified protein [2]”, the Km was 160 ± 20 µM and the kcat was 6.47 ± 0.04 s⁻¹.

By Km is commonly meant the substrate concentration at which the rate is half of its maximum. For orientation: kcat means the maximal rate divided by the concentration of active sites.
